Results reported in patent US8524947B2, “Acylsulfonamides and processes for producing the same” (University of South Florida, priority 2008, dated 2013).

What was measured:
Bcl-XL [1] = biological target: T1, Bcl-XL (Homo sapiens, UniProt Q07817); test: Suppression of Bcl-XL-templated incubations of (SZ4) and (TA2) by BH3 peptides (LC/MS-SIM); type: biochemical; settings: for amount of acylsulfonamide (SZ4TA2) in Bcl-XL incubations containing the peptide: compared to the Bcl-XL incubations containing wild type Bak BH3 and Bim peptides
T1 sequence (Q07817 whole entry): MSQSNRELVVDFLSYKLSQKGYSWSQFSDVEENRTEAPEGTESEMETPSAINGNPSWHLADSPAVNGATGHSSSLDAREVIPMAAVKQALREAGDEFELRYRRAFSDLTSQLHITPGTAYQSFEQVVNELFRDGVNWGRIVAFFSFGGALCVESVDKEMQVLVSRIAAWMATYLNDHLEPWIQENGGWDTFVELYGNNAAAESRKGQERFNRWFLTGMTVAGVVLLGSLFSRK
Procedure: In a 96-well plate, one thio acid building block (1 μL of a 2 mM solution in methanol) and one sulfonyl azide building block (1 μL of a 2 mM solution in methanol) were added to a solution of Bcl-XL (98 μL of a 2 μM Bcl-XL solution in buffer (58 mM Na2HPO4, 17 mM NaH2PO4, 68 mM NaCl, 1 mM NaN3, pH=7.40)). The 96-well plate was sealed and incubated at 38.5° C. for six hours. The incubation samples were then subjected to liquid chromatography combined with mass spectrometry analysis in the selected ion mode (LC-MS-SIM, Zorbax SB-C18 preceded by a Phenomenex C18 guard column, electrospray ionization and mass spectroscopic detection in the positive selected ion mode, tuned to the expected molecular mass of the product). The TGS hit compound was identified by the mass and retention time. As a control, identical building block combinations were incubated in buffer without Bcl-XL and subjected to LC/MS-SIM analysis. Comparison of the LC-MS-SIM chromatograms of these control incubations with the chromatograms of the Bcl-XL containing incubations allows to determine whether the protein is templating the corresponding amidation reactions or not. For the Bcl-XL containing incubation sample showing acylsulfonamide formation, a second control has been undertaken. Synthetically prepared acylsulfonamide was subjected to LC/MS-SIM analysis and the retention time was compared with the retention time identified in the Bcl-XL containing incubation.
Additional control experiments have been performed to test whether the Bcl-XL-templated reaction occurs at the BH3 binding site on Bcl-XL. Reactive building blocks (SZ4) and (TA2) were incubated with Bcl-XL and pro-apoptotic Bak BH3 peptide. Bak is one of the natural Bcl-XL ligands and theoretically competes with the reactive building blocks for binding on Bcl-XL during the incubations. The influence of Bak BH3 peptide on the Bcl-XL-templated reaction was studied at different ratios of Bak BH3 peptide and Bcl-XL (FIG. 10).
Additional control experiments have been performed with Bim, mutant Bim, and mutant Bak. […]

Bcl-XL [2] = biological target: T1, Bcl-XL; settings: compared to wildtype Bak BH3 and Bim peptides; cited from earlier work

Substance	Bcl-XL-templated reaction (formation of SZ4TA2) (Bcl-XL [1]; 20 μM Bak BH3 peptide, (SZ4) and (TA2) with Bcl-XL, compared to the Bcl-XL incubation without Bak BH3)	amount of acylsulfonamide (SZ4TA2) in Bcl-XL incubations containing the peptide (Bcl-XL [1])	affinity towards Bcl-XL (Bcl-XL [2])
Bak BH3 peptide: pro-apoptotic Bak BH3 peptide, a natural Bcl-XL ligand; sequence CMGQVGRQLAIIGDDINRRYDS	significantly suppressed		
mutant Bak: mutant Bak BH3 peptide; sequence CMGQVGRQAAIIGADINRRYDS		increased amount	lower affinity
mutant Bim: mutant Bim BH3 peptide; sequence CEIWIAQEARRIGAEFNAYYAR		increased amount	lower affinity
